Data on one molecule can be found in patent publication US20090082268A1 (GEYMONAT S P A, published 2009).

In the assay the target is T1, human VEGFR-1/Fc (R&D Systems) (human, UniProt P17948 27-756, limits assumed).
T1 construct: Bought reagent, coated on the ELISA plate; also called receptor Flt-1; not shown: Fc part of the bought fusion
In words: ELISA: VEGFR-1/Fc coated, PlGF-1 diluted two-fold from 20 ng/ml, detected with biotinylated anti-human PlGF antibodies. How it is done:
To test receptor binding, an ELISA assay was performed according to the following protocol: [0141] 1. Well of 96-well microtiter plate were coated with 200 μl of 1 μg/ml human VEGFR-1/Fc (R&D Systems) and incubated overnight at 4° C. [0142] 2. Two-fold dilution series starting at 20 ng/ml of various preparations of recombinant human PlGF-1 were prepared and added in a volume of 100 μl per well. The plate was incubated for 2 hours at room temperature. [0143] 3. Bound PlGF-1 was captured with biotinylated anti-human PlGF antibodies (R&D Systems) added in a volume of 100 μl per well for 1 hour at room temperature. [0144] 4. A 1:200 dilution of horseradish peroxidase-conjugated streptavidin (R&D Systems) was added and incubated for 20 min. at room temperature. [0145] 5. Substrate solution (TMB from Pierce) was added and after 15 min. the reaction was quenched with 2 M sulfuric acid. [0146] 6. The absorbance was measured at 450 nm.
(In an ELISA, binding on a coated surface is turned into a signal by an enzyme label.)

T1 sequence (P17948 27-756 limits assumed): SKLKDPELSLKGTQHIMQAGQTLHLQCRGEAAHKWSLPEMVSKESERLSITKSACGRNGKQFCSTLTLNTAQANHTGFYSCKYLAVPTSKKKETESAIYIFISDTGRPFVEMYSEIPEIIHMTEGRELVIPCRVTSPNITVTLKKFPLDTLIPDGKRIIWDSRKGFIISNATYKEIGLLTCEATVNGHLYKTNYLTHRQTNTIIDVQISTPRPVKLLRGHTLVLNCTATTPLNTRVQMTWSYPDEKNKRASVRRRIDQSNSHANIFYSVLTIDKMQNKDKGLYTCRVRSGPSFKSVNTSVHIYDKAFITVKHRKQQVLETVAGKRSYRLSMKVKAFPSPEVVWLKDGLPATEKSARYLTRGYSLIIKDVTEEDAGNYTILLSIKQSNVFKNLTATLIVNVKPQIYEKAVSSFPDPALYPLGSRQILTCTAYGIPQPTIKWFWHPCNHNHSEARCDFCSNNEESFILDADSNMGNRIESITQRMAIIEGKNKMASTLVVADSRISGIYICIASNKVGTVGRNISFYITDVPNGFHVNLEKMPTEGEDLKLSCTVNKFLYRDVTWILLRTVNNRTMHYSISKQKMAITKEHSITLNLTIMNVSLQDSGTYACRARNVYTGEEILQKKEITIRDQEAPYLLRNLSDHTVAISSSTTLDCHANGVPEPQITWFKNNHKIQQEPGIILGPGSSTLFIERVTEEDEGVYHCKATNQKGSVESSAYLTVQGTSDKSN

B1: PlGF-1 mutein from Geymonat (recombinant human PLGF-1CG) (ligand)
chain: MLPAVPPQQWALSAGNGSSEVEVVPFQEVWGRSYCRALERLVDVVSEYPSEVEHMFSPSCVSLLRCTGCCGDENLHCVPVETANVTMQLLKIRSGDRPSYVELTFSQHVRCECRPLREKMKPERGGDAVPRR
notes: Described as 'a PlGF-1 mutein embodiment of the present invention'; also called Geymonat Mutein; Mutein Geymonat
As to B1, the binding result was “binds”.
